Experimental data reported in the supplement of paper PMC11196671.
± gives the standard deviation of the averaged measurements.

Experiments:
[1] = terephthalic acid (TPA) released, HPLC; higher = more TPA released; extreme values may be limits of the assay; settings: 24 h
Protocol: (§1)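 Purified PET hydrolases, 2.5 ug enzyme on 3.5 mg amorphous PET film (aFilm) or crystalline PET powder (cryPow) in 0.5 mL of 50 mM buffer (NaCitrate pH 4.5/5.5, NaPhosphate 6.5/7.5, glycine 8.5/9.5) at 60 or 70 C with shaking for 24 h. Total aromatic product by UV-Vis (260/280 nm, blank-subtracted, normalised per mg enzyme) and individual TPA, MHET, BHET concentrations by UHPLC-DAD at 240 nm; duplicate reactions.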

[2] = MHET released, HPLC; higher = more MHET released; extreme values may be limits of the assay; settings: 24 h
Protocol: as §1

[3] = BHET released, HPLC; higher = more BHET released; extreme values may be limits of the assay; settings: 24 h
Protocol: as §1

[4] = PET hydrolysis product formed (TPA+MHET+BHET, UV-Vis) per mg enzyme (mmol/mg enzyme); higher = more PET depolymerisation activity; extreme values may be limits of the assay; settings: 2 h
Protocol: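 Purified PET hydrolases (His-SUMO cleaved, E. coli C41(DE3) small-scale expression), 2.5 ug enzyme on 3.5 mg amorphous PET film (aFilm) or crystalline PET powder (cryPow) in 0.5 mL of 50 mM buffer (NaCitrate pH 4.5/5.5, NaPhosphate 6.5/7.5, glycine 8.5/9.5) at 60 or 70 C with shaking for 2 h. Soluble aromatic products (TPA+MHET+BHET) were quantified by UV-Vis at 260/280 nm, blank-subtracted against the no-enzyme control, and normalised per mg enzyme; duplicate reactions.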

[5] = PET substrate: aFilm, 60 °C, pH 4.5
[6] = PET substrate: aFilm, 60 °C, pH 5.5
[7] = PET substrate: aFilm, 60 °C, pH 6.5
[8] = PET substrate: aFilm, 60 °C, pH 7.5
[9] = PET substrate: aFilm, 60 °C, pH 8.5
[10] = PET substrate: aFilm, 60 °C, pH 9.5
[11] = PET substrate: aFilm, 70 °C, pH 4.5
[12] = PET substrate: aFilm, 70 °C, pH 5.5
[13] = PET substrate: aFilm, 70 °C, pH 6.5
[14] = PET substrate: aFilm, 70 °C, pH 7.5
[15] = PET substrate: aFilm, 70 °C, pH 8.5
[16] = PET substrate: aFilm, 70 °C, pH 9.5
[17] = PET substrate: cryPow, 60 °C, pH 4.5
[18] = PET substrate: cryPow, 60 °C, pH 5.5
[19] = PET substrate: cryPow, 60 °C, pH 6.5
[20] = PET substrate: cryPow, 60 °C, pH 7.5
[21] = PET substrate: cryPow, 60 °C, pH 8.5
[22] = PET substrate: cryPow, 60 °C, pH 9.5
[23] = PET substrate: cryPow, 70 °C, pH 4.5
[24] = PET substrate: cryPow, 70 °C, pH 5.5
[25] = PET substrate: cryPow, 70 °C, pH 6.5
[26] = PET substrate: cryPow, 70 °C, pH 7.5
[27] = PET substrate: cryPow, 70 °C, pH 8.5
[28] = PET substrate: cryPow, 70 °C, pH 9.5

## SNPYQRGPNPTRSALTADGPFSVATYTVSRLSVSGFGGGVIYYPTGTSLTFGGIAMSPGYTADASSLAWLGRRLASHGFVVLVINTNSRFDGPDSRASQLSAALNYLRTSDPSAVRARLDANRLAVAGHSMGGGATLRIAEQNPSLKAAIPLTPWHTQKTFNTSVPVLIVGAEADTVAPVSQHAIPFYQNLPSTTPKVYVELCNASHIAPNSNNAAISVYTISWMKLWVDNDTRYRQFLCNVNDPALCDFRTNNRHCQ [LCC-ICCG DAQI]
[1]; [5]
  terephthalic acid: 0.0488 ± 0.0093 mM
[1]; [6]
  terephthalic acid: 0.279 ± 0.0061 mM
[1]; [7]
  terephthalic acid: 0.541 ± 0.14 mM
[1]; [8]
  terephthalic acid: 3.26 ± 0.3 mM
[1]; [9]
  terephthalic acid: 0.517 ± 0.04 mM
[1]; [10]
  terephthalic acid: 1.99 ± 0.35 mM
[1]; [11]
  terephthalic acid: 0 mM
[1]; [12]
  terephthalic acid: 0.1646 ± 0.00022 mM
[1]; [13]
  terephthalic acid: 0.296 ± 0.044 mM
[1]; [14]
  terephthalic acid: 2.26 ± 0.43 mM
[1]; [15]
  terephthalic acid: 0.205 ± 0.037 mM
[1]; [16]
  terephthalic acid: 1.45 ± 0.086 mM
[1]; [17]
  terephthalic acid: 0.0214 ± 0.0007 mM
[1]; [18]
  terephthalic acid: 0.0856 ± 0.009 mM
[1]; [19]
  terephthalic acid: 0.0997 ± 0.011 mM
[1]; [20]
  terephthalic acid: 0.216 ± 0.024 mM
[1]; [21]
  terephthalic acid: 0.103 ± 0.0061 mM
[1]; [22]
  terephthalic acid: 0.441 ± 0.029 mM
[1]; [23]
  terephthalic acid: 0 mM
[1]; [24]
  terephthalic acid: 0.04158 ± 9.1e-05 mM
[1]; [25]
  terephthalic acid: 0.0736 ± 0.0043 mM
[1]; [26]
  terephthalic acid: 0.401 ± 0.017 mM
[1]; [27]
  terephthalic acid: 0.0916 ± 0.0065 mM
[1]; [28]
  terephthalic acid: 0.659 ± 0.042 mM
[2]; [5]
  MHET released: 0.0359 ± 0.0049 mM
[2]; [6]
  MHET released: 0.267 ± 0.041 mM
[2]; [7]
  MHET released: 0.562 ± 0.17 mM
[2]; [8]
  MHET released: 3.69 ± 0.81 mM
[2]; [9]
  MHET released: 0.3306 ± 0.0017 mM
[2]; [10]
  MHET released: 2.09 ± 0.09 mM
[2]; [11]
  MHET released: 0 mM
[2]; [12]
  MHET released: 0.189 ± 0.0027 mM
[2]; [13]
  MHET released: 0.371 ± 0.049 mM
[2]; [14]
  MHET released: 4.52 ± 0.83 mM
[2]; [15]
  MHET released: 0.211 ± 0.049 mM
[2]; [16]
  MHET released: 1.54 ± 0.49 mM
[2]; [17]
  MHET released: 0.033 ± 0.007 mM
[2]; [18]
  MHET released: 0.189 ± 0.01 mM
[2]; [19]
  MHET released: 0.254 ± 0.0038 mM
[2]; [20]
  MHET released: 0.437 ± 0.021 mM
[2]; [21]
  MHET released: 0.197 ± 0.0089 mM
[2]; [22]
  MHET released: 0.155 ± 0.028 mM
[2]; [23]
  MHET released: 0 mM
[2]; [24]
  MHET released: 0.0777 ± 0.0059 mM
[2]; [25]
  MHET released: 0.167 ± 0.018 mM
[2]; [26]
  MHET released: 0.424 ± 0.026 mM
[2]; [27]
  MHET released: 0.164 ± 0.0033 mM
[2]; [28]
  MHET released: 0.0936 ± 0.0087 mM
[3]; [5]
  BHET released: 0 mM
[3]; [6]
  BHET released: 0.0132 ± 0.0094 mM
[3]; [7]
  BHET released: 0 mM
[3]; [8]
  BHET released: 0.0548 ± 0.011 mM
[3]; [9]
  BHET released: 0.00252 ± 0.0036 mM
[3]; [10]
  BHET released: 0.0577 ± 0.0065 mM
[3]; [11]
  BHET released: 0 mM
[3]; [12]
  BHET released: 0.0149 ± 0.0015 mM
[3]; [13]
  BHET released: 0.00777 ± 0.011 mM
[3]; [14]
  BHET released: 0.143 ± 0.0074 mM
[3]; [15]
  BHET released: 0 mM
[3]; [16]
  BHET released: 0 mM
[3]; [17]
  BHET released: 0 mM
[3]; [18]
  BHET released: 0.00665 ± 0.0012 mM
[3]; [19]
  BHET released: 0 mM
[3]; [20]
  BHET released: 0 mM
[3]; [21]
  BHET released: 0 mM
[3]; [22]
  BHET released: 0 mM
[3]; [23]
  BHET released: 0 mM
[3]; [24]
  BHET released: 0 mM
[3]; [25]
  BHET released: 0.00289 ± 0.0041 mM
[3]; [26]
  BHET released: 0 mM
[3]; [27]
  BHET released: 0 mM
[3]; [28]
  BHET released: 0 mM
[4]; [5]
  PET hydrolysis product formed: 0
[4]; [6]
  PET hydrolysis product formed: 0.02083 ± 0.00018
[4]; [7]
  PET hydrolysis product formed: 0.0428 ± 0.0094
[4]; [8]
  PET hydrolysis product formed: 0.0608 ± 0.021
[4]; [9]
  PET hydrolysis product formed: 0.0525 ± 0.0036
[4]; [10]
  PET hydrolysis product formed: 0.0903 ± 0.03
[4]; [11]
  PET hydrolysis product formed: 0
[4]; [12]
  PET hydrolysis product formed: 0.0394 ± 0.016
[4]; [13]
  PET hydrolysis product formed: 0.0829 ± 0.0029
[4]; [14]
  PET hydrolysis product formed: 0.189 ± 0.028
[4]; [15]
  PET hydrolysis product formed: 0.0593 ± 0.0072
[4]; [16]
  PET hydrolysis product formed: 0.241 ± 0.025
[4]; [17]
  PET hydrolysis product formed: 0
[4]; [18]
  PET hydrolysis product formed: 0.0387 ± 0.017
[4]; [19]
  PET hydrolysis product formed: 0.0449 ± 0.022
[4]; [20]
  PET hydrolysis product formed: 0.0986 ± 0.013
[4]; [21]
  PET hydrolysis product formed: 0.0373 ± 0.0043
[4]; [22]
  PET hydrolysis product formed: 0.0245 ± 0.0021
[4]; [23]
  PET hydrolysis product formed: 0
[4]; [24]
  PET hydrolysis product formed: 0.0166 ± 0.0027
[4]; [25]
  PET hydrolysis product formed: 0.0286 ± 0.0048
[4]; [26]
  PET hydrolysis product formed: 0.0606 ± 0.0025
[4]; [27]
  PET hydrolysis product formed: 0.0323 ± 0.00033
[4]; [28]
  PET hydrolysis product formed: 0.0462 ± 0.0063
